Experimental data: publication PMC2980497

Biological target: MutL (Escherichia coli) (UniProt P23367)
Assay: single-molecule flow-extension
Conditions: 25 mM NaCl, 0.5 mM ATP, 2.5 pN; S0.5, multiple MutL bind; smFRET: 20 mM Tris-HCl pH 7.5, 25-150 mM NaCl (25 mM standard), 0.1 mM EDTA, 3 mM MgCl2, 0.5 mM ATP, 1 mM DTT, oxygen scavenger with 2 mM trolox …

Sequence of UniProt P23367 (P23367 whole entry): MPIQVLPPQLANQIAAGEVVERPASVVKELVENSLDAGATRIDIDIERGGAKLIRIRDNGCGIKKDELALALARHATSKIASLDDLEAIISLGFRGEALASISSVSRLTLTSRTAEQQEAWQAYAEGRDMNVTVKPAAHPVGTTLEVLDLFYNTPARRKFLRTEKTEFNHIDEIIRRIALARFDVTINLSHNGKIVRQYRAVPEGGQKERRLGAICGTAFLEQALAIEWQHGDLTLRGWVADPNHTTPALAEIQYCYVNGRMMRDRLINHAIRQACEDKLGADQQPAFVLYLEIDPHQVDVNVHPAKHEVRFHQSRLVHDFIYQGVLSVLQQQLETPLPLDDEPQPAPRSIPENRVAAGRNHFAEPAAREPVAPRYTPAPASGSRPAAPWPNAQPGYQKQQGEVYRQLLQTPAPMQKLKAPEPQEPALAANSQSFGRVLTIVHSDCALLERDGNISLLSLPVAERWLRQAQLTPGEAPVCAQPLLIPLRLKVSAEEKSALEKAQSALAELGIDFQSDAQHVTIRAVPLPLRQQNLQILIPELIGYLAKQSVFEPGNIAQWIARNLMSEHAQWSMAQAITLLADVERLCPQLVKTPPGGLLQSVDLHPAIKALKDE

Substance 5.3 kb ssDNA has a K half of 24 nM.
